Results on 2 molecules are retold here after patent US20220153839A1.

The target of the experiment is ROR1 (reagent by which anti-ROR1 recognition of CAR-T cells was read; form not stated). In words: FACS of EGFR+ transduced T cells.

Where only a bound is given, the exact number is not on record here.

ROR1 (reagent by which anti-ROR1 recognition of CAR-T cells was read; form not stated), sequence (Q01973 24-403): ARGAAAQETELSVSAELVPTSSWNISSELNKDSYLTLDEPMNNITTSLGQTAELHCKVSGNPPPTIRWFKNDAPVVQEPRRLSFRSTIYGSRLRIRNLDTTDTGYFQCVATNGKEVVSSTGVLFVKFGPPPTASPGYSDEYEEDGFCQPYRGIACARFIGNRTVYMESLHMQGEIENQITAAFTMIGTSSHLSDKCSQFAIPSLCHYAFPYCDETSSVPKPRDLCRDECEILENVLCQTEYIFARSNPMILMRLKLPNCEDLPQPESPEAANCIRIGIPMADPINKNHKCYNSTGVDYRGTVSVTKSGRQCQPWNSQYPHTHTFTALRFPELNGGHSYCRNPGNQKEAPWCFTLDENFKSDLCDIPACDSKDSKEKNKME

B1: XBR1-402 chimeric antigen receptor with short spacer, on CD8+ T cells (protein, part only; not given: scFv linker, spacer, signaling parts, not shown: large carriers)
scFv, part: QEQQKESGGGLFKPTDTLTLTCTASGFDISSYYMSWVRQAPGNGLEWIGAIGISGNAYYASWAKSRSTITRNTNLNTVTLKMTSLTAADTATYFCARDHPTYGMDLWGPGTLVTVSSSYELTQLPSVSVSLGQTARITCEGNNIGSKAVHWYQQKPGLAPGLLIYDDDERPSGVPDRFSGSNSGDTATLTISGAQAGDEADYYCQVWDSSAYVFGGGTQLTVTG
For B1, the percent of CAR-T cells with anti-ROR1 recognition is > 90%.

B2: XBR1-402 chimeric antigen receptor with long spacer, on CD8+ T cells (protein, part only; not given: scFv linker, spacer, signaling parts, not shown: large carriers)
scFv, part: B1 scFv, part
Regarding B2, the percent of CAR-T cells with anti-ROR1 recognition is > 90%.
